The values below come from patent US20220202899A1, “COMPOSITION FOR PREVENTION OR TREATMENT OF HAIR LOSS INCLUDING HAPLN1” (HAPLNSCIENCE INC., priority 2019, published 2022).

Assay [1] has as its system p-c-Raf. The assay can be described thus: p-c-Raf in human hair germinal matrix cells stimulated with TGF-β2 (Western blotting). Format: cell-based. Conditions: HAPLN1 25 ng/mL and/or HA 25 μg/mL; TGF-β2 2 ng/mL, 1 hour. The protocol:
Human hair germinal matrix cells were dispensed into a poly-D-lysine 6-well plate at a concentration of 5.0×10^4 per well and cultured for 24 hours. After 24 hours, the medium was removed and replaced with a new serum-free medium. HAPLN1 was treated with 25 ng/mL and HA with 25 μg/mL, incubated for 23 hours, and then stimulated with TGF-β2 (2 ng/mL) for 1 hour. After collecting cells, a lysis buffer (25 mM Tris-HCl, 1 mM EDTA, 0.1% Triton-X100, phosphatase inhibitor, and protease inhibitor) was added, and all the cells were broken through sonication. p-ERK1/2, p-Smad2, p-MEK1/2, and p-c-Raf in the sample were measured using Western blotting. Optical densities of p-ERK1/2, p-Smad2, p-MEK1/2, and p-c-Raf were compared to those of ERK1/2, Smad2/3, MEK1, and c-Raf using a densitometer. Here, ERK1/2, Smad2/3, MEK1, and c-Raf were used as loading controls.

Assay [2] deals with human dermal papilla cells. Description: Dermal papilla cell proliferating effect, CCK-8 (Example 13). Format: cell-based. The settings on record: proteins 25 ng/ml, minoxidil 10 μM; TGF-β2 (2 ng/ml) present or absent. The protocol:
Human dermal papilla cells were cultured in a 37° C., 5% CO2 incubator using a dermal papilla cell proliferation medium (Promocell). When the cells were about 90% full, the cells were detached with a 0.05% Trypsin/EDTA solution and then centrifuged at 1000 rpm for 3 minutes to recover only the cells. The cells were dispensed into a 96-well plate at 2.0×10^3 per well, cultured for 24 hours, and HAPLN1, CX3CL1 and CDON were diluted to have a final concentration of 25 ng/ml in serum-free medium. After removing the existing culture medium, 200 μl of diluted HAPLN1, CX3CL1, and CDON were dispensed into each well and cultured for 1 hour. To reduce an experimental variation, 3 wells per group were treated (triplication). In addition, minoxidil, which is known to proliferate dermal papilla cells, was treated with 10 μM and set as a positive control.
In the same manner as described above, HAPLN1 (25 ng/ml), CX3CL1 (25 ng/ml), CDON (25 ng/ml) or minoxidil (10 μM), and human recombinant TGF-β2 were diluted to a final concentration of 2 ng/ml, and the medium of the group containing TGF-β2 was replaced by 200 μl. To reduce an experimental variation, 3 wells per group were treated (triplication).
After incubation for 23 hours, the plate was removed from the incubator, and 20 μl of CCK-8 (WST-8) solution was added to the plate containing the medium and the reagent per 200 μl of the medium for the reaction to be carried out at 37° C. for 1 hour.

B1: hyaluronan and proteoglycan link protein 1 (protein, UniProt P10915 16-354, looked up)
Hyaluronan and proteoglycan …: DHLSDNYTLDHDRAIHIQAENGPHLLVEAEQAKVFSHRGGNVTLPCKFYRDPTAFGSGIHKIRIKWTKLTSDYLKEVDVFVSMGYHKKTYGGYQGRVFLKGGSDSDASLVITDLTLEDYGRYKCEVIEGLEDDTVVVALDLQGVVFPYFPRLGRYNLNFHEAQQACLDQDAVIASFDQLYDAWRGGLDWCNAGWLSDGSVQYPITKPREPCGGQNTVPGVRNYGFWDKDKSRYDVFCFTSNFNGRFYYLIHPTKLTYDEAVQACLNDGAQIAKVGQIFAAWKILGYDRCDAGWLADGSVRYPISRPRRRCSPTEAAVRFVGFPDKKHKLYGVYCFRAYN
notes: extracellular matrix protein found in cartilage; stabilizes aggregates of hyaluronic acid and proteoglycans
As for B1, in assay [1], the “c-Raf activity (p-c-Raf compared to c-Raf)” value is reported as “increased activities”. In addition, the “dermal papilla cell proliferation (absorbance at 450 nm)” value in assay [2] is on record as “did not proliferate dermal papilla cells or rather inhibited proliferation thereof”.
